Columns and labels:
[1] = target: Plasmodium falciparum formin 1 FH1 and FH2 domains (Pf-Frm1-FH1FH2) (P. falciparum); assay: SEC-MALS; Superdex 200 10/300 GL, 200 µl of each formin at 1 mg/ml; 50 mM sodium phosphate pH 7.0, 50 mM NaCl, 1 mM DTT; monomer to dimer
[2] = target: Plasmodium falciparum formin 1 FH2 domain with the lasso segment (Pf-Frm1-FH2) (P. falciparum); assay: as above

Substance	stoichiometry N [1]	stoichiometry N [2]
Plasmodium falciparum formin 1 FH1 and FH2 domains (Pf-Frm1-FH1FH2) (domain or fragment)	2	
Plasmodium falciparum formin 1 FH2 domain with the lasso segment (Pf-Frm1-FH2) (domain or fragment)		2

From article PMC3302767
